The target of this assay is p97/VCP-His, recombinant full-length mouse p97/VCP (mouse, UniProt Q01853 1-806). Briefly: pull-down.
Chain of p97/VCP-His, recombinant full-length mouse p97/VCP (Q01853 whole entry): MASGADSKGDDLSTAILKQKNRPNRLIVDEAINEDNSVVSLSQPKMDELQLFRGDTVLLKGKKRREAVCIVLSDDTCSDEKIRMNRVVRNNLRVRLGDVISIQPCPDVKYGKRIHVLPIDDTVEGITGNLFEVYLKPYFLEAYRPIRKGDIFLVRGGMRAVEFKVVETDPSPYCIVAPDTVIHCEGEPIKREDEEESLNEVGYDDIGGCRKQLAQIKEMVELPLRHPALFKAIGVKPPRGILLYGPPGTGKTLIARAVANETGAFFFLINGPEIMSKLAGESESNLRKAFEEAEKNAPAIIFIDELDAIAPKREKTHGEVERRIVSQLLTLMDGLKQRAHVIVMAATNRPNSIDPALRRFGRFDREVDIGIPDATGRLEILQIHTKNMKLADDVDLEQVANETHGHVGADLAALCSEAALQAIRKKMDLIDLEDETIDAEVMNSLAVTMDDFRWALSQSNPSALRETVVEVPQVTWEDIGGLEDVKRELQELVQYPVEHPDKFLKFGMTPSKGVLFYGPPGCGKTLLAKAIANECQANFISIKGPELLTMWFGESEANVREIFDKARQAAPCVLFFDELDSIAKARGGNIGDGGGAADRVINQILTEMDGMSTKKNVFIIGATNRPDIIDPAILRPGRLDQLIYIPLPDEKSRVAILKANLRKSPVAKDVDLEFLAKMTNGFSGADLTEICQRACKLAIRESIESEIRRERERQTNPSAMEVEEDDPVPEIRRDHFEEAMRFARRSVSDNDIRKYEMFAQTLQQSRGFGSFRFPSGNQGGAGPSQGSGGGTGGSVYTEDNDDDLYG

B1: erasin-His, recombinant full-length human erasin (natural protein)
chain: MLWFQGAIPAAIATAKRSGAVFVVFVAGDDEQSTQMAASWEDDKVTEASSNSFVAIKIDTKSEACLQFSQIYPVVCVPSSFFIGDSGIPLEVIAGSVSADELVTRIHKVRQMHLLKSETSVANGSQSESSVSTPSASFEPNNTCENSQSRNAELCEIPPTSDTKSDTATGGESAGHATSSQEPSGCSDQRPAEDLNIRVERLTKKLEERREEKRKEEEQREIKKEIERRKTGKEMLDYKRKQEEELTKRMLEERNREKAEDRAARERIKQQIALDRAERAARFAKTKEEVEAAKAAALLAKQAEMEVKRESYARERSTVARIQFRLPDGSSFTNQFPSDAPLEEARQFAAQTVGNTYGNFSLATMFPRREFTKEDYKKKLLDLELAPSASVVLLPAGRPTASIVHSSSGDIWTLLGTVLYPFLAIWRLISNFLFSNPPPTQTSVRVTSSEPPNPASSSKSEKREPVRKRVLEKRGDDFKKEGKIYRLRTQDDGEDENNTWNGNSTQQM
Regarding B1, the binding result is recorded as “binds”.

These data come from publication PMC2768832 (The Journal of Cell Biology, 2009).
